Experimental data as given in PMC7679444.

B1: TMEM59 peptide (residues 268–280), wild type [modified: long spacer (Tds) at the N-terminal end, used for immobilisation; long spacer (Tds) at the N-terminal end, used for immobilisation] [not stated] / GST-HA-ATG16L1(231–607) … (parent)
chain 1: PLPVEQDDDIEVIVDETSDHTEETSPVRAISRAATKRLSQPAGGLLDSITNIFGRRSVSSFPVPQDNVDTHPGSGKEVRVPATALCVFDAHDGEVNAVQFSPGSRLLATGGMDRRVKLWEVFGEKCEFKGSLSGSNAGITSIEFDSAGSYLLAASNDFASRIWTVDDYRLRHTLTGHSGKVLSAKFLLDNARIVSGSHDRTLKLWDLRSKVCIKTVFAGSSCNDIVCTEQCVMSGHFDKKIRFWDIRSESIVREMELLGKITALDLNPERTELLSCSRDDLLKVIDLRTNAIKQTFSAPGFKCGSDWTRVVFSPDGSYVAAGSAEGSLYIWSVLTGKVEKVLSKQHSSSINAVAWSPSGSHVVSVDKGCKAVLWAQY
chain 2: YVPSEKLSIYGDL

Variants of: B1
Assay: peptide microarray
Details: with GST-HA-ATG16L1(231–607) [human], parent: 100

Variant | percent of parent (ligand 800, 600, 400 nM) [% WT] | percent of parent (ligand 200, 50, 20 nM) [% WT]
chain 2 I9K | 149 | –
chain 2 I9Q | 102 | –
chain 2 I9R | 93 | –
chain 2 I9E | 96 | –
chain 2 I9T | 49 | –
chain 2 I9D | 15 | –
chain 2 I9F | 159 | –
chain 2 I9V | 109 | –
chain 2 Y10H | 3 | –
chain 2 Y10V | 9 | –
chain 2 Y10I | 21 | –
chain 2 Y10Q | 2 | –
chain 2 Y10N | 3 | –
chain 2 Y10T | 4 | –
chain 2 Y10A | 4 | –
chain 2 Y10D | 4 | –
chain 2 Y10R | 5 | –
chain 2 Y10W | 135 | –
chain 2 Y10G | 2 | –
chain 2 Y10M | 3 | –
chain 2 Y10L | 36 | –
chain 2 Y10K | 6 | –
chain 2 Y10S | 3 | –

Variant | percent of parent (ligand 800, 600, 400 nM) [% WT] | percent of parent (ligand 200, 50, 20 nM) [% WT]
chain 2 Y10F | 106 | –
chain 2 Y10E | 2 | –
chain 2 Y10P | 3 | –
chain 2 K6M | 10 | 7
chain 2 K6G | 6 | 6
chain 2 K6L | 51 | 35
chain 2 K6R | 11 | 8
chain 2 K6D | 6 | 7
chain 2 K6N | 2 | 4
chain 2 K6H | 21 | 28
chain 2 K6Q | 4 | 3
chain 2 K6F | 114 | 96
chain 2 K6W | 106 | 126
chain 2 K6E | 3 | 2
chain 2 K6A | 7 | 6
chain 2 K6I | 61 | 53
chain 2 K6T | 12 | 7
chain 2 K6V | 56 | 50
chain 2 K6Y | 74 | 105
chain 2 K6P | 3 | 7
chain 2 K6S | 11 | 8
chain 2 Y1I | 79 | 75
chain 2 Y1A | 18 | 17

Variant | percent of parent (ligand 800, 600, 400 nM) [% WT] | percent of parent (ligand 200, 50, 20 nM) [% WT]
chain 2 Y1P | 17 | 16
chain 2 Y1L | 41 | 44
chain 2 Y1H | 28 | 30
chain 2 Y1N | 22 | 21
chain 2 Y1G | 92 | 94
chain 2 Y1D | 12 | 10
chain 2 Y1F | 121 | 139
chain 2 Y1M | 10 | 12
chain 2 Y1W | 121 | 120
chain 2 Y1E | 13 | 13
chain 2 Y1Q | 12 | 10
chain 2 Y1S | 28 | 29
chain 2 Y1R | 17 | 12
chain 2 Y1T | 17 | 17
chain 2 Y1K | 19 | 17
chain 2 Y1V | 16 | 15
chain 2 L13W | 196 | –
chain 2 L13R | 48 | –
chain 2 L13V | 123 | –
chain 2 L13P | 94 | –
chain 2 L13N | 30 | –
chain 2 L13D | 27 | –
chain 2 L13H | 66 | –

Variant | percent of parent (ligand 800, 600, 400 nM) [% WT] | percent of parent (ligand 200, 50, 20 nM) [% WT]
chain 2 L13F | 173 | –
chain 2 L13M | 36 | –
chain 2 L13K | 21 | –
chain 2 L13S | 32 | –
chain 2 L13G | 54 | –
chain 2 L13Y | 201 | –
chain 2 L13T | 5 | –
chain 2 L13I | 177 | –
chain 2 L13A | 50 | –
chain 2 L13Q | 37 | –
chain 2 L13E | 60 | –
chain 2 G11S | 103 | –
chain 2 G11F | 43 | –
chain 2 G11R | 62 | –
chain 2 G11L | 17 | –
chain 2 G11T | 117 | –
chain 2 G11V | 13 | –
chain 2 G11W | 165 | –
chain 2 G11H | 156 | –
chain 2 G11E | 129 | –
chain 2 G11Q | 31 | –
chain 2 G11M | 40 | –
chain 2 G11K | 127 | –

Variant | percent of parent (ligand 800, 600, 400 nM) [% WT] | percent of parent (ligand 200, 50, 20 nM) [% WT]
chain 2 G11A | 18 | –
chain 2 G11D | 146 | –
chain 2 G11P | 155 | –
chain 2 G11Y | 150 | –
chain 2 G11I | 1 | –
chain 2 G11N | 140 | –
chain 2 D12A | 131 | –
chain 2 D12M | 93 | –
chain 2 D12K | 191 | –
chain 2 D12R | 164 | –
chain 2 D12I | 129 | –
chain 2 D12Q | 105 | –
chain 2 D12V | 159 | –
chain 2 D12N | 128 | –
chain 2 D12S | 128 | –
chain 2 D12Y | 180 | –
chain 2 D12H | 179 | –
chain 2 D12T | 133 | –
chain 2 D12F | 138 | –
chain 2 D12W | 177 | –
chain 2 D12G | 158 | –
chain 2 D12E | 173 | –
chain 2 D12L | 110 | –

Variant | percent of parent (ligand 800, 600, 400 nM) [% WT] | percent of parent (ligand 200, 50, 20 nM) [% WT]
chain 2 D12P | 145 | –
chain 2 P3E | 86 | 89
chain 2 P3A | 168 | 328
chain 2 P3H | 145 | 225
chain 2 P3L | 189 | 493
chain 2 P3K | 181 | 499
chain 2 P3V | 176 | 334
chain 2 P3I | 172 | 343
chain 2 P3R | 131 | 216
chain 2 P3M | 184 | 435
chain 2 P3T | 191 | 518
chain 2 P3S | 138 | 184
chain 2 P3G | 131 | 143
chain 2 P3F | 168 | 472
chain 2 P3Q | 152 | 254
chain 2 P3N | 110 | 109
chain 2 P3W | 188 | 483
chain 2 P3D | 107 | 104
chain 2 P3Y | 104 | 134
